Reference: patent US20210214430A1 (Regeneron, published 2021)

B3: recombinant VEGF MiniTrap (dimer) MT5 (receptor)
chain: SDTGRPFVEMYSEIPEIIHMTEGRELVIPCRVTSPNITVTLKKFPLDTLIPDGKRIIWDSRKGFIISNATYKEIGLLTCEATVNGHLYKTNYLTHRQTNTIIDVVLSPSHGIELSVGEKLVLNCTARTELNVGIDFNWEYPSSKHQHKKLVNRDLKTQSGSEMKKFLSTLTIDGVTRSDQGLYTCAASSGLMTKKNSTFVRVHEKDKTHTCPPCPAPELLG
notes: also called VEGF MiniTrap 5

Tests used:
[1] = target: B3; experiment: affinity chromatography on immobilized mAb1, low-pH eluate on non-reducing SDS-PAGE
Description: (§1) The column was activated by washing the columns with 6 column volumes (CV) of 1 mM ice-cold hydrochloric acid at a flow rate not exceeding 1 mL/min. […] The columns were washed with 18 column volumes of 0.5 M sodium acetate, 0.5 M NaCl, pH 4.0 and the open sites were blocked with 18 column volumes of 0.5 M Tris-HCl, 0.5 M NaCl pH 8.3 (the wash was carried out in the following order: 6 column volumes of 0.5 M Tris-HCl, 0.5 M NaCl, pH 8.3; 6 column volumes of 0.5 M sodium acetate (sodium acetate: JT Baker, Cat #3470-01), 0.5 M NaCl, pH 4.0; 6 column volumes of 0.5 M Tris, pH 8.3; incubate the column for 30 minutes at room temperature; 6 column volumes of 0.5 M sodium acetate buffer, 0.5 M NaCl pH 4.0; 6 column volumes of 0.5 M Tris-HCl, 0.5 NaCl, pH 8.3 and 6 column volumes of 0.5 M sodium acetate buffer, 0.5 M NaCl pH 4.0). The columns were stored in DPBS, pH 7.5. The five columns evaluated are designated as column 1 (comprising VEGF₁₆₅), column 2 (comprising mAb1), column 3 (comprising mAb2), column 4 (comprising mAb3) and column 5 (comprising mAb4).
(§2) SDS-PAGE analysis of the eluted fractions from the three columns (column 1, column 2, and column 3) was performed. […]

[2] = target: B3; experiment: affinity chromatography on immobilized mAb2, low-pH eluate on non-reducing SDS-PAGE
Description: as §1, §2

[3] = target: T1, VEGF165 (human, UniProt P15692 207-395); experiment: SPR, Biacore T200, 25 C; MT5 captured on amine-coupled mAb1, VEGF165 injected at 0.03-2 nM; 1:1 Langmuir fit; conditions: loading solution before affinity chromatography
T1 construct: also called hVEGF165
T1 sequence (P15692 other isoform, or with tags, fused parts or gaps limits assumed): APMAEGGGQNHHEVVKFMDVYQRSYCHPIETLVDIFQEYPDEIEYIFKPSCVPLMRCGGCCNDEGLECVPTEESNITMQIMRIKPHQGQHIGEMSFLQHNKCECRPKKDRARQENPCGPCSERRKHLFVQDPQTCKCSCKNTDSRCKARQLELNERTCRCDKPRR
Description: All binding studies were performed in 10 mM HEPES, 150 mM NaCl, 3 mM EDTA, and 0.05% v/v Surfactant Tween-20, pH 7.4 (HBS-ET) running buffer at 25° C. The Biacore sensor surface was first derivitized by amine coupling with a mAb 1 to capture MT5.
Briefly, the eluates from the columns and loading solution were diluted into an HBS-EP (Biacore) buffer and injected across the immobilized protein matrices at a capture level of ˜70 RUs. The VEGF₁₆₅ was then injected at a flow rate of 50 μL/min. Equivalent concentration of analyte was simultaneously injected over an untreated reference surface to serve as blank sensorgrams for subtraction of bulk refractive index background. The sensor chip surface was regenerated between cycles with two 5-min injections of 10 mM Glycine, at 25 μL/min. The resultant experimental binding sensorgrams were then evaluated using the BIA evaluation 4.0.1 software to determine kinetic rate parameters. Datasets for each sample were fit to the 1:1 Langmuir model. For these studies, binding and dissociation data were analyzed under the Global Fit Analysis protocol while selecting fit locally for maximum analyte binding capacity (RU) or Rmax attribute. In this case, the software calculated a single dissociation constant (kd), association constant (ka), and affinity constant (Kd). The equilibrium dissociation constant is KD=kd/ka. […] The dissociative half-lives (t½) were calculated from the kinetic rate constants as: t_{1/2}=ln(2)/60*[…]. Binding kinetic parameters for MT5 to VEGF₁₆₅ obtained from before and after the affinity chromatography production at 25° C. are shown in Table 7-6.

[4] = target: B3; experiment: affinity chromatography, antibody coupled to HiTrap NHS-activated column (column 4)

B1: mAb1 (a mouse anti-VEGFR1 mAb human IgG1) (antibody)
heavy: not shown
light: DIQMTQSPSSLSASLGGKVTITCTTSQDSNNYIAWYQHKPGKGPRLLIHYASTLQPGIPSRFSGSGSGRDYSFSISNLEPEDIATYFCLQYDYLWTFGGGTKLELKRTVAAPSVFIFPPSDEQLKSGTASVVCLLNNFYPREAKVQWKVDNALQSGNSQESVTEQDSKDSTYSLSSTLTLSKADYEKHKVYACEVTHQGLSSPVTKSFNRGEC
notes: Also amine-coupled to the Biacore chip to capture MT5
- binding result [1]: binds

B2: mAb2 (a mouse anti-VEGFR1 mAb human IgG1) (antibody, V domains shown)
VH: EVQLVESGGDLVKPGGSLKLSCAASGFTFSDSGMSWVRQTPDKRLEWVATISSGGGYTYYSDSVEGRFTISRDNANNTLFLQMSSLKSEDTAMFYCARLGNYGGYYGMDYWGQGTSVTVSS
VL: DIQMTQSPSSLSASLGGKVTITCKTSQDSNKYIAWYQHKPGKGPRLLIHYTSTLQPGIPSRFSGSGSGRDYSFSISNLEPEDIATYYCLQYDNLWTFGGGTKLEIKR
notes: also called column 3
- binding result [2]: binds

Binder: B3
- Kd [3]: 1.84 pM
- koff [3]: 1.74e-05 s⁻¹
- kon [3]: 9.44e+06 M⁻¹ s⁻¹
- t1/2 (dissociative half-life) [3]: 11.1 h

B4: mAb3 (a mouse anti-VEGFR1 mAb mouse IgG1) (antibody)
heavy: EVQLVESGGDLVKPGGSLKLSCAASGFTFSSSGMSWVRQTPDKRLEWVATITSGGSYTYYPDSVKGRFTISRDNAKNTLYLQMSSLKSEDTAMFYCARLGNYGGYYAMDYWGQGTSVTVSSAKTTPPSVYPLAPGSAAQTNSMVTLGCLVKGYFPEPVTVTWNSGSLSSGVHTFPAVLQSDLYTLSSSVTVPSSTWPSETVTCNVAHPASSTKVDKKIVPRDCGCKPCICTVPEVSSVFIFPPKPKDVLTITLTPKVTCVVVDISKDDPEVQFSWFVDDVEVHTAQTQPREEQFNSTFRSVSELPIMHQDWLNGKEFKCRVNSAAFPAPIEKTISKTKGRPKAPQVYTIPPPKEQMAKDKVSLTCMITDFFPEDITVEWQWNGQPAENYKNTQPIMDTDGSYFVYSKLNVQKSNWEAGNTFTCSVLHEGLHNHHTEKSLSHSPGK
light: DIQMTQSPSSLSASLGGKVTITCTTSQDSNNYIAWYQHKPGKGPRLLIHYASTLQPGIPSRFSGSGSGRDYSFSISNLEPEDIATYFCLQYDYLWTFGGGTKLELKRADAAPTVSIFPPSSEQLTSGGASVVCFLNNFYPKDINVKWKIDGSERQNGVLNSWTDQDSKDSTYSMSSTLTLTKDEYERHNSYTCEATHKTSTSPIVKSFNRGEC
notes: also called column 4
- binding result [4]: binds
